Measurements published in publication PMC11323322.
Residue numbers refer to the chain shown, from its start. One block for each molecule: values may come before it.

Key:
[1] = test system: AIR-3A (RNA, G4) GGGGAGGCUGUGGUGAGGG; experiment: fluorescence enhancement
[2] = test system: CIL-6A6-1 (DNA, G4, circular (5' and 3' ends ligated)) ATCTCGACTAGTCAGTGGTGGATATGGGGAGGCTGTGGTGAGGGTATGGTTGTCTCGGATTGGTTGTCTCGGAT; experiment: fluorescence enhancement
[3] = test system: CIL-6A6-1A (DNA, G4, circular) ATCTCGACTAGTCAGTGGTGGATATGTGCACACTGTTGTGAACGTATGGTTGTCTCGGATTGGTTGTCTCGGAT; experiment: fluorescence enhancement
[4] = molecular target: T1, sIL-6R (soluble IL-6 receptor alpha) (human, UniProt P08887 20-355); experiment: pull-down, real-time PCR; 1x PBSMT pH 7.2: 137 mM NaCl, 2.68 mM KCl, 8.1 mM Na2HPO4, 1.76 mM KH2PO4, 1 mM MgCl2, 0.025% Tween-20; pull-down 1 h (room temperature in SELEX); MST at 25 C; details: protein: commercial; circular
T1 sequence (P08887 20-355): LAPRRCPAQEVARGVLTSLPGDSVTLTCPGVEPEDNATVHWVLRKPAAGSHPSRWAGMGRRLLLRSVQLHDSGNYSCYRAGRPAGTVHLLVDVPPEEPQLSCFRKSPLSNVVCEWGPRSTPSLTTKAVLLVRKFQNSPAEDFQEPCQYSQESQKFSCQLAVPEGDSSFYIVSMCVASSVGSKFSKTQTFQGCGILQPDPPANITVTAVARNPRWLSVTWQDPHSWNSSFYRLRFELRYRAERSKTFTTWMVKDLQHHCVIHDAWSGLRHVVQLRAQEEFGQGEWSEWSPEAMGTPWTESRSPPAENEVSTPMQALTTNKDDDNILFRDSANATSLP

[5] = molecular target: T1, sIL-6R (soluble IL-6 receptor alpha); experiment: MST; 1x PBSMT pH 7.2: 137 mM NaCl, 2.68 mM KCl, 8.1 mM Na2HPO4, 1.76 mM KH2PO4, 1 mM MgCl2, 0.025% Tween-20; pull-down 1 h (room temperature in SELEX); MST at 25 C; details: protein: commercial
IL-6 (interleukin-6) [6] = molecular target: T2, IL-6 (interleukin-6) (human, UniProt P05231 30-212); experiment: pull-down, real-time PCR; 1x PBSMT pH 7.2: 137 mM NaCl, 2.68 mM KCl, 8.1 mM Na2HPO4, 1.76 mM KH2PO4, 1 mM MgCl2, 0.025% Tween-20; pull-down 1 h (room temperature in SELEX); MST at 25 C; details: protein: commercial; circular
T2 sequence (P05231 30-212): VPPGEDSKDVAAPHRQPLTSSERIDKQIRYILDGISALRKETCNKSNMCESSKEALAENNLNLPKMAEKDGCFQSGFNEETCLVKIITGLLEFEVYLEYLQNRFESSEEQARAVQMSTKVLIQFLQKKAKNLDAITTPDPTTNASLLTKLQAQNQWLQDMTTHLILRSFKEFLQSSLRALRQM

IL-6 (interleukin-6) [7] = molecular target: T2, IL-6 (interleukin-6); experiment: pull-down, real-time PCR; fully functional; 1x PBSMT pH 7.2: 137 mM NaCl, 2.68 mM KCl, 8.1 mM Na2HPO4, 1.76 mM KH2PO4, 1 mM MgCl2, 0.025% Tween-20; pull-down 1 h (room temperature in SELEX); MST at 25 C; details: protein: commercial; circular
[8] = molecular target: T1, sIL-6R (soluble IL-6 receptor alpha); experiment: as above; details: protein: commercial; circular
IL-6 (interleukin-6) [9] = molecular target: T2, IL-6 (interleukin-6); experiment: pull-down, real-time PCR; smaller Kd than CIL-6A; value only in figure; 1x PBSMT pH 7.2: 137 mM NaCl, 2.68 mM KCl, 8.1 mM Na2HPO4, 1.76 mM KH2PO4, 1 mM MgCl2, 0.025% Tween-20; pull-down 1 h (room temperature in SELEX); MST at 25 C; details: protein: commercial; circular; two putative antiparallel G4 motifs
[10] = molecular target: T1, sIL-6R (soluble IL-6 receptor alpha); experiment: as above; details: protein: commercial; circular; two putative antiparallel G4 motifs
IL-6 (interleukin-6) [11] = molecular target: T2, IL-6 (interleukin-6); experiment: MST; 1x PBSMT pH 7.2: 137 mM NaCl, 2.68 mM KCl, 8.1 mM Na2HPO4, 1.76 mM KH2PO4, 1 mM MgCl2, 0.025% Tween-20; pull-down 1 h (room temperature in SELEX); MST at 25 C; details: protein: commercial; linear
IL-6 (interleukin-6) [12] = molecular target: T2, IL-6 (interleukin-6); experiment: pull-down, real-time PCR; affinity largely retained; 1x PBSMT pH 7.2: 137 mM NaCl, 2.68 mM KCl, 8.1 mM Na2HPO4, 1.76 mM KH2PO4, 1 mM MgCl2, 0.025% Tween-20; pull-down 1 h (room temperature in SELEX); MST at 25 C; details: protein: commercial; circular
[13] = order of intensities similar to ThT

binding [1, 13]: yes | binding ([2]; fluorescence decreased by added 50 and 100 mM Li+): yes | binding [3, 13]: yes
Molecule: CCc1c(C)c2cc3nc(cc4nc(cc5c(CC)c(C)c(cc1[nH]2)n5C)C(C)=C4CCC(=O)O)C(CCC(=O)O)=C3C

binding ([1]; excitation 425 nm, second highest intensity, with or above CIL-6A6-1A): yes | binding ([2]; excitation 425 nm, highest intensity of the five sequences): yes | binding ([3]; excitation 425 nm, intensity below CIL-6A6-1): yes
Molecule: Cc1ccc2c(c1)sc(-c1ccc(N(C)C)cc1)[n+]2C

B1: CIL-6B (ssDNA)
DNA: ATCTCGACTAGTCAGGTGTTGTAATGGTAAGGGGAGGCTGTGGTGAGGGTTGGTTGTCACGGATAGTTGTGTCTCGGAT
modifications: circular
binding result [4]: binds

B2: AIR-3A (structured_RNA)
RNA: GGGGAGGCUGUGGUGAGGG
Kd ([5]; G4, 2-tiered): 67.5 nM

B3: CIL-6A (ssDNA)
DNA: ATCTCGACTAGTCAGTGGTGGATACCGGATGGGGAGGCTGTGGTGAGGGTATGGTTGTCTCGGATTGGTTGTCTCGGAT
modifications: circular (5'-3' ligated)
Kd (IL-6 (interleukin-6) [6]): 8.5 nM | Kd [4]: 6.9 nM

B4: CIL-6A4 (ssDNA)
DNA: B3 DNA with G17T, G18T
modifications: circular
binding result (IL-6 (interleukin-6) [7]): binds | binding result [8]: binds

B5: CIL-6A6 (ssDNA)
DNA: B3 DNA with C25T, C26T, G27T, G28T, A29T
modifications: circular
binding result (IL-6 (interleukin-6) [7]): binds | binding result [8]: binds

B6: CIL-6C (ssDNA)
DNA: ATCTCGACTAGTCATATGGTGTAGATCCTTGGGGAGGCTGTGGTGAGGGGGTTGAAGGTAGTTGCTCGTTGTCTCGGAT
modifications: circular
binding result (IL-6 (interleukin-6) [6]): binds | binding result [4]: binds

B7: CIL-6A-R (ssDNA)
DNA: ATCTCGACTATTTTTTTTTTTTTTTTTTTTGGGGAGGCTGTGGTGAGGGTTTTTTTTTTTTTTTTTTTTTGTCTCGGAT
modifications: circular
binding result (IL-6 (interleukin-6) [6]): no binding

B8: CIL-6A46 (ssDNA)
DNA: ATCTCGACTAGTCAGGGATATGGGGAGGCTGTGGTGAGGGTATGGTTGTCTCGGATTGGTTGTCTCGGAT
modifications: circular
binding result (IL-6 (interleukin-6) [6]): binds | binding result [4]: binds

B9: CIL-6A4-1 (ssDNA)
DNA: ATCTCGACTAGTCAGGGATACCGGATGGGGAGGCTGTGGTGAGGGTATGGTTGTCTCGGATTGGTTGTCTCGGAT
modifications: circular
binding result (IL-6 (interleukin-6) [6]): binds | binding result [4]: binds

B10: CIL-6A6-1 (structured_DNA)
DNA: ATCTCGACTAGTCAGTGGTGGATATGGGGAGGCTGTGGTGAGGGTATGGTTGTCTCGGATTGGTTGTCTCGGAT
modifications: circular
Kd (IL-6 (interleukin-6) [9]): < 8.5 nM | Kd [10]: < 6.9 nM

B11: IL-6A6-1 (linear form of CIL-6A6-1) (ssDNA)
DNA: B10 DNA
modifications: linear
binding result (IL-6 (interleukin-6) [11]): no binding | binding result ([5]; linear): no binding

B12: CIL-6A-C (ssDNA)
DNA: ATCTCGACTAGTCAGTGGTGGATACCGGATTTTTTTTTTTTTTTTTTTTTATGGTTGTCTCGGATTGGTTGTCTCGGAT
modifications: circular
binding result [4]: no binding | binding result (IL-6 (interleukin-6) [12]): binds

B13: CIL-6D (ssDNA)
DNA: ATCTCGACTAGTTAGACGCTACGTGCGGATGGGGAGGCTGTGGTGAGGGTTGGTGTTCTCGGATGATGGTGTCTCGGAT
modifications: circular
binding result [4]: binds
